Reference: the supplement of paper PMC9170038

Tested on: K4 kissing-loop RNA reporter
Assay: apparent KD of K4 kissing-loop reporter; higher = weaker reporter binding
Conditions: Eterna round: R107
Description: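 RNA-MaP round R107: designed RNA switches with theophylline, tryptophan, arginine or FMN aptamers are transcribed on-chip within common flanks. They are titrated with a labelled K4 kissing-loop RNA reporter in RNA-MaP buffer (100 mM Tris pH 7.5, 80 mM KCl, 4 mM MgCl2), without ligand or with the indicated ligand. Median apparent KD per design.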

[1] = input ligand: theophylline 20 uM
[2] = input ligand: tryptophan 2.4 mM
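Also: bound reporter read as fluorescence of individual clusters on recovered sequencing chips by microscopy, with normalized cluster intensities fitted with a binding model.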

Sequence | apparent KD of K4 kissing-loop reporter (input ligand: FMN 200 uM) [nM] | apparent KD of K4 kissing-loop reporter (input ligand: arginine 13.2 mM) [nM] | apparent KD of K4 kissing-loop reporter (input ligand: none) [nM] | apparent KD of K4 kissing-loop reporter [1] [nM] | apparent KD of K4 kissing-loop reporter [2] [nM]
CCUUGAGAGUGAUGUUCUCGAGUGAAAGUCAAGGAUAUCCCGCGGUGGAGAAGGUGAUGGCGAACUUGACUGCUGUCAGUCCUAA [theeternabot_exclusion_KL_FMN_A_10] | 104 | 105 | 121 | 109 | 110
CGAGUCAAUUCAGAUACCAGCCAAUUAAAGUCGAGUGAUGUUCGACAAUGAACAUCCAAAGGCCCUUGGCAGCUGAAUUGGGAAC [Same State Theophylline B GF 18] | 144 | 87.3 | 114 | 228 | 83.4
CGAGUGAUGUUCGUUUAUUACUCUGUUUGACAGGAUAUGCGGAAACGCAGAAGGGUCACCUUUGAGUUAGACGGAGUUAUUUUUU [Ex FMN A 22] | 539 | 359 | 407 | 355 | 323
CGAUCUGAUAGCAGUGAUGUUGCUACAGAUACCAGUCCAGAUCGAGACCCUUGGCAGCUGACCCGGCAUGUGCUAUGGUAGAUCG [Theo A Ex t1] | 156 | 127 | 155 | 154 | 146
CGCAGUGAUGUUGCGAAUAUAAUAACGGAAGGAGCGCGUGAAAACGCAGGUAGGUCGCCGAUUGGUAUGAUGGAAACAUCGUACC [Arginine A K4 9] | 154 | 134 | 125 | 115 | 122
CGCGUAUCGGCAGGAUAUGGAGUUGAGUGAUGUUCAGCAAUGGGUCAUCAUCUUUAUGACAAUCCACCAGAAGGGCCGAUACGCG | 622 | 632 | 1100 | 944 | 812
CGGACGGUAUCGGCCGCCACUCUGAAGACAGUGAUGUUGUCCGUGCAGUAUUUAGGAAAGCCGCGGAGGACCGGGAUGCGUCACU [theeternabot_sameState_KL_Trp_B_48] | 374 | 150 | 232 | 253 | 340
CGGAUGUAGUGAUGUUAUAUUAGAUGUAGACGAGGACCGGUACGGCCGCCACUCGUGAUGGCUGCUAGCGCGUUGCGAGGUUUGC [ExTryptoA.Co] | 408 | 558 | 567 | 633 | 386
CGUGCCCGGCCGGAUACCAGUGACCCGCUGGGAACCGCGGGCCCAGAGUGAUGUUCGGGACACCCUUGGCAGCCGCCUGGGCGGC [#2 Same State - Theophylline B Attempt #13 (HarryS)] | 987 | 637 | 1080 | 614 | 655
CUAUGGAAACAUAGUGAUCGGGAAACCGAUACCAGUAUGGAAACAUACCCUUGGCAGCGGAAUGAUCUAACGGAGUGAUGUUCCG [Theophylline A K4 23] | 492 | 456 | 574 | 389 | 496
CUCUAACUGAGAAGGAGCGCGAUAUAAACACUCGCACAGUGAUGUUGUGUGUCAAGGGUAUCGCAGGUAGGUCGCUCAGAUACCU [Arg B SS t15] | 294 | 247 | 255 | 273 | 248
CUGAGCCUGACGUAAGUCAGGCUCUGCGAGCGAGGACCGGUACGGCCGCCACUCGGUGCAGUGAUGUUGCAUGGCCGCAAGGCCG [#2 Exclusion - Tryptophan A Attempt #19 (HarryS)] | 293 | 246 | 234 | 254 | 345
CUGGGUUGACGAAAAGUCAACAAAUGAGAAGGAGCGCACGAAAGUGCAGGUAGGUCGCUCAGUCCAGUGAUGUUGGAUCAUCCAG [#SwitchBubble 10 #K4Late] | 461 | 602 | 578 | 480 | 361
GAAACGUUGCGGACUAUCGCAUAAAGUCACCGAGGACCGGUACGGCCGCCACUCGCCAGUGAUGUUGGCGUGUUUGCGCGCUGUG [Titebebi] | 104 | 94 | 95.4 | 101 | 178
GAAAGGAGUGAUGUUCCUGAUAAUUUUAUGAAGGAUAUUCGAUGUGGAAGAAGGUCAUGCAGGCAGCAAGGUUGCGAUCAUAUCA [theeternabot_exclusion_KL_FMN_A_40] | 131 | 158 | 143 | 185 | 128
GAAUAAUAACAUGAGUGAUGUUCAUGUAAACGAGGACCGGUACGGCCGCCACUCGAACCUCAUGUAAGCCGUACCAAUAACAAUA [KL-XTryp-A4 #analogue] | 115 | 120 | 112 | 116 | 120

Sequence | apparent KD of K4 kissing-loop reporter (input ligand: FMN 200 uM) [nM] | apparent KD of K4 kissing-loop reporter (input ligand: arginine 13.2 mM) [nM] | apparent KD of K4 kissing-loop reporter (input ligand: none) [nM] | apparent KD of K4 kissing-loop reporter [1] [nM] | apparent KD of K4 kissing-loop reporter [2] [nM]
GACGGGUUCCUGCUCAAUCCGUCGCAUGAUCGAGGACCGGUACGGCCGCCACUCGAGGCCAUGCCGUACGAGUGAUGUUCGUGCG [Xeon] | 438 | 367 | 403 | 380 | 200
GAGGCCAGACGGAGUGAUGUUUCGUAUGAUACCAGCAGCGAAAGCUGCCCUUGGCAGCAUGCCACGGCCUCGGCGGGAAACCGCC | 372 | 319 | 397 | 446 | 384
GAGGUGGAGUGAUGUUCCACACUCGCUAGUAAGGAUAUGGCUGCUUCCAGAAGGUACCUAGAUUCAGUGUGCAUCAGUAACGUGC [theeternabot_exclusion_KL_FMN_A_4] | 95.2 | 96.3 | 106 | 105 | 96.3
GAUAUAGUGAUGUUAUAUACUGAUAGACAACGAGGACCGGUACGGCCGCCACUCGAGAGGGUGAAAAUAAUGAUAAAAUAAUAAU [ExyTryA#1] | 343 | 310 | 359 | 298 | 265
GAUAUAGUGAUGUUAUAUACUGAUAGACAACGAGGACCGGUACGGCCGCCACUCGAGAGGGUGAAAAUGAUGAUAAAAUAAUGAU [#02 K4 Tryptophan A Exclusion] | 329 | 318 | 333 | 306 | 278
GAUCUGAACGAAAGUUCGGAUCAUUCCGAUACCAGUAUGGAUUCAUACCCUUGGCAGCGGGAUUCUGCUAUGGAGUGAUGUUCCA [Theophylline A K4 15] | 422 | 332 | 475 | 400 | 362
GAUGAAGAGUCGUUAGUUAGGGCUUUCGAUACCAGCGCCCGUCCACGCCCUUGGCAGCGAUUGAAAGAGUGAUGUUCUGUCAGGA [theeternabot_exclusion_KL_Theo_A_31] | 578 | 309 | 546 | 741 | 289
GAUUCUGUUCGAAAGAACGGAAUCACGGAAGGAGCGAGAGAAAUCUCAGGUAGGUCGCCGAAUUUUAGAUAGUGAUGUUAUCAUU [Arginine A K4 1] | 820 | 724 | 1080 | 856 | 711
GAUUUAGAGGCGGCCGCCACUAGUGAUGUUAGUGAUGUUUGAUACUGUAUAUAUCGGCGUGUAGAUAGGACCGGGCCUGAUGGAG [drrdmullin] | 259 | 176 | 266 | 210 | 196
GCAAUCCCGGCGGCCGCCACUUUCAUACCAGUGAUGUUGAGUAGGAAAUGGAAUAUGCGCUGAAUAAGGACCGGGCCUAAGGAGA [theeternabot_exclusion_KL_Trp_B_47] | 270 | 216 | 251 | 255 | 210
GCAGUGAUGUUGCGAAUCGGCCAUGAUGCAGAGGAUAUCGUGCCUUCGAGAAGGUUGUAUAGAGGAUACGAUACUAUUAAUGACG [Same State FMN A GF 6] | 395 | 356 | 714 | 413 | 329
GCAUCCAUGGCAGGAUAUAGGUUCGUGGAGUGAUGUUCCAUAGCCCGAGUGAUGUUCGUUAUCCACCUAGAAGGGCCAUGGAUGC [whbob_Ex_FMNB__2th212] | 270 | 205 | 246 | 211 | 210
GCAUCCAUGGCAGGAUAUAGGUUCGUGGAGUGAUGUUCCAUAGCCCGAGUGAUGUUCGUUAUCCGCCUAGAAGGGCCAUGGAUGC [whbob_Ex_FMNB__2th213] | 247 | 192 | 227 | 219 | 203
GCAUCGAUGGCAGGAUAUAGGUUCGUGGAGUGAUGUUCCAUAGCCCGAGUGAUGUUCGUUAUCCGCCUAGAAGGGCCGUGGAUGC [whbob_Ex_FMNB__2th215] | 263 | 210 | 297 | 221 | 244
GCCAGAUAGACGGCCGCCACUUAUAAGUUUCAGUGAUGUUGGAACGGCAAAUGCCGAACACAAUAGAGGACCGGGUCAACUGGCG [Same State Tryptophan B GF 1] | 920 | 591 | 835 | 901 | 639
GCCGCAAGGCUAGCAGCAAUAGGCGCUCGCUAGGAUAUCUGGAAACAGAGAAGGAGCUGGAGUGAUGUUUUACCUCCUUGUUAUU | 1000 | 735 | 950 | 814 | 657
